Data as given in patent publication US20050221422.

Experiments:
[1] = molecular target: various GalNAc α1-peptides
[2] = molecular target: T1, 11-GalNAc-HP-Cy5 (VPSTPPTPSPS(GalNAc)TPPTPSPS), human IgA1 hinge peptide with GalNAc on the 11th residue, Cy5-labelled
T1 chain: VPSTPPTPSPSTPPTPSPS

[3] = molecular target: T2, 4-GalNAc-HP (VPST(GalNAc)PPTPSPSTPPTPSPS), human IgA1 hinge peptide with GalNAc on the 4th residue
T2 chain: VPSTPPTPSPSTPPTPSPS

B1: C1Gal-T2 (entire ORF expressed in LSC cells, LSC-C1Gal-T2 enzyme source) (protein)
chain: MLSESSSFLKGVMLGSIFCALITMLGHIRIGHGNRMHHHEHHHLQAPNKEDILKISEDERMELSKSFRVYCIILVKPKDVSLWAAVKETWTKHCDKAEFFSSENVKVFESINMDTNDMWLMMRKAYKYAFDKYRDQYNWFFLARPTTFAIIENLKYFLLKKDPSQPFYLGHTIKSGDLEYVGMEGGIVLSVESMKRLNSLLNIPEKCPEQGGMIWKISEDKQLAVCLKYAGVFAENAEDADGKDVFNTKSVGLSIKEAMTYHPNQVVEGCCSDMAVTFNGLTPNQMHVMMYGVYRLRAFGHIFNDALVFLPPNGSDND
Question: What does the source list for B1?
Answer: galactosyltransferase activity on acceptor substrates [1]: the above experiment was repeated using various GalNAc α1-peptides as acceptor substrates. This resulted in similar reactions to that with pNp-α-GalNAc; HPLC of the galactose transfer reaction product [2]: the reaction product appeared as a new peak at 28.8 minutes; β1,3-galactosidase treatment of the reaction product, HPLC [2]: C1Gal-T2 was verified in vitro to be a core 1 synthetase, by which galactose is transferred to the nonreducing terminal of GalNAc α1-peptide through the β1,3 bond

B2: FLAG tagged C1Gal-T3 fusion protein (C1Gal-T3 recombinant enzyme from pFLAG-C1Gal-T3, secreted by COS-1 cells) (protein)
chain: HIRHRGQTQDHEHHHLRPPNRNDFLNTSKVILLELSKSIRVFCIIFGESEDESYWAVLKETWTKHCDKAELYDTKNDNLFNIESNDRWVQMRTAYKYVFEKYGDNYNWFFLALPTTFAVIENLKYLLFTRDASQPFYLGHTVIFGDLEYVTVEGGIVLSRELMKRLNRLLDNSETCADQSVIWKLSEDKQLAICLKYAGVHAENAEDYEGRDVFNTKPIAQLIEEALSNNPQQVVEGCCSDMAITFNGLTPQKMEVMMYGLYRLRAFGHYFNDTLVFLPPVGSEND
Question: B2 was tested. Which galactose transferring activity [3] did it give?
Answer: galactose transferring activity could be confirmed for 4-GalNAc-HP
